From IntAct's records for PubMed 16369487

B1: SPRY domain-containing SOCS box protein 2 (Mus musculus), O88838 (parent)
chain: MGQTALARGSSSTPTSQALYSDFSPPEGLEELLSAPPPDLVAQRHHGWNPKDCSENIDVKEGGLCFERRPVAQSTDGVRGKRGYSRGLHAWEISWPLEQRGTHAVVGVATALAPLQADHYAALLGSNSESWGWDIGRGKLYHQSKGLEAPQYPAGPQGEQLVVPERLLVVLDMEEGTLGYSIGGTYLGPAFRGLKGRTLYPSVSAVWGQCQVRIRYMGERRVEEPQSLLHLSRLCVRHALGDTRLGQISTLPLPPAMKRYLLYK
partner: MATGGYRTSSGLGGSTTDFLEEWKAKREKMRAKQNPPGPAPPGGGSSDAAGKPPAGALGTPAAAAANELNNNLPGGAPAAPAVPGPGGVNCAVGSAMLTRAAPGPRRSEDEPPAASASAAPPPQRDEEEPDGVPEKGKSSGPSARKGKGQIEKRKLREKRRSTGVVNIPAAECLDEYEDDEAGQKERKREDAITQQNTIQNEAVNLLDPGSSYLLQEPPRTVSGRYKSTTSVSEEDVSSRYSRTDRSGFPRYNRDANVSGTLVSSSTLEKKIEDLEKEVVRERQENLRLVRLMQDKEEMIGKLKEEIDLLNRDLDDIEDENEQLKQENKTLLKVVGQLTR

Variants of: B1
Conditions: with pawr_human PAWR

| Variant | effect of a mutation on the interaction |
| --- | --- |
| G188A;P189A | disrupting interaction strength |
| Y120A | disrupting interaction |
| Y141A;H142A;Q143A | disrupting interaction strength |

Further lines, results first:

| effect of a mutation on the interaction | Variant |
| --- | --- |
| disrupting interaction strength | L123A;L124A;G125A |
| disrupting interaction | V206A |
| disrupting interaction strength | Q151A;Y152A |
